Substitutions are numbered along the chain they refer to. Numbers in names are those of the source. Entries after “also recorded” stand apart in the source; their conditions may differ.
B1: FGF21-19A: Hybrid protein: FGF21 1–156 fused with FGF19 169–194 (K194A) (protein)
chain: HPIPDSSPLLQFGGQVRQRYLYTDDAQQTEAHLEIREDGTVGGAADQSPESLLQLKALKPGVIQILGVKTSRFLCQRPDGALYGSLHFDPEACSFRELLLEDGYNVYQSEAHGLPLHLPGNKSPHRDPAPRGPARFLPLPGLPPALPEPPGILAPQPLETDSMDPFGLVTGLEAVRSPSFEA
modifications: left off: SUMO (yeast), end not stated, cleaved | His6, end not stated, state not stated
B2: FGF21,A^164: Native FGF21 with D164A substitution (protein, UniProt Q9NSA1 29-209, looked up, variant D164A)
Fibroblast growth factor 21: HPIPDSSPLLQFGGQVRQRYLYTDDAQQTEAHLEIREDGTVGGAADQSPESLLQLKALKPGVIQILGVKTSRFLCQRPDGALYGSLHFDPEACSFRELLLEDGYNVYQSEAHGLPLHLPGNKSPHRDPAPRGPARFLPLPGLPPALPEPPGILAPQPPDVGSSAPLSMVGPSQGRSPSYAS
B3: FGF21: Human FGF21 (UniProtKB #Q9NSA1 29–209, designated 1–181) (protein)
chain: B2 Fibroblast growth factor 21 with A164D
modifications: left off: SUMO (yeast), end not stated, cleaved | His6, end not stated, state not stated
B4: FGF23: FGF23 (#Q9GZV9: 25–251) (protein, UniProt Q9GZV9 25-251, looked up)
Fibroblast growth factor 23: YPNASPLLGSSWGGLIHLYTATARNSYHLQIHKNGHVDGAPHQTIYSALMIRSEDAGFVVITGVMSRRYLCMDFRGNIFGSHYFDPENCRFQHQTLENGYDVYHSPQYHFLVSLGRAKRAFLPGMNPPPYSQFLSRRNEIPLIHFNTPIPRRHTRSAEDDSERDPLNVLKPRARMTPAPASCSQELPSAEDNSPMASDPLGVVRGGRVNTHAGGTGPEGCRPFAKFI

Columns and labels:
[1] = system: 293/KLB cells; test: Agonist pERK AlphaLISA assay in 293/KLB cells; type: cell-based, human; conditions: 10 min at 37° C, n = 3
Description: (§1) 293T HEK cells expressing KLB (or KL) or Hep3B cells were plated to 5–6 x 10^4 cells/well density in 96-well cell culture plate coated with poly-D-Lysine (Corning). The cells were serum starved for four hours in 0.1% BSA fraction V (ThermoFisher) containing media prior to treatment with protein and/or an antagonist peptide at the mentioned concentrations for 10 min at 37° C. For the antagonist assays, a chosen fixed dose within the range of 0.8–30 nM (depending on the cell type) of FGF21 or FGF19 stimulant was added to all the wells. BaF3 cells expressing human KLB/FGFR1c or human KLB/FGFR4-1c chimera were seeded at 5 × 10^5 cells/well density in 96-well cell culture plate and serum-starved overnight. FGF21/19 analogs were diluted in 0.02% Tween-20 containing RPMI1640 medium and the cells were treated for 15 min at 37° C. Following the respective cell treatments, the cells were lysed (with lysis buffer provided in the kit) for 10 min at room temperature on a shaker and the lysate was mixed with reaction mixture (consisting of reaction buffer, activation buffer, acceptor and donor beads provided in the kit). Phosphorylated ERK1/2 (pERK) levels were subsequently recorded by EnSpire Alpha or Envision Multilabel plate reader (Perkin Elmer). The cell assays corresponding to 293/KLB or Hep3B cells were carried out with AlphaLISA SureFire Ultra pERK1/2 (Thr 202/Tyr204) kit (Perkin Elmer), and BaF3 cells were done using AlphaScreen pERK1/2 (Thr202/Tyr204) kit (Perkin Elmer).
All cellular phosphorylation data were analyzed using 3-parameter non-linear regression curve in GraphPad Prism 7. Graphs are represented as relative maximal (100%) response of the positive control. All other test analog signals were adjusted accordingly as % values. […] Each peptide and protein analog was tested in triplicates in three independent experiments (n = 3), and normalized graphs plotted are expressed as mean ± SD unless otherwise noted.

[2] = system: diet-induced obese (DIO) mice; test: In vivo FGF21 agonism study in DIO mice; design: species or system mouse; conditions: for Body weight change: daily sc 0.1, 0.3 or 1 mg/kg for 7 days, n = 8
Excerpt: (§2) All animal studies were approved by and performed according to the guidelines of the Institutional Animal Care and Use Committee of the University of Cincinnati (Cincinnati, USA). Eight-week old male C57BL/6J mice (Jackson Laboratories) were given ad libitum access to either a chow diet (lean mice), or a high-fat high-sugar diet (HFD, DIO mice) containing 58% kcal from fat (Research Diets, catalog# D12331). For DIO mice, animals were maintained on the HFD for a minimum of 3 months prior to initiation of the pharmacological studies. The mice were maintained at 22 °C on a 12-h light–dark cycle with free access to water. Before the beginning of the studies, mice were randomized into treatment groups according to body weight. All injections and tests were performed during the light cycle with a group size of n = 8.
Mice were administered vehicle, FGF21 or FGF21-19A (0.1, 0.3 and 1 mg/kg) daily via sc injections and their body weight measurements were made on alternative days. At the end of 7 day treatment, blood was collected from tail veins using EDTA-coated microvette tubes (Sarstedt), immediately placed on ice, centrifuged at 5000 × g and 4 °C for 10 min, and plasma was stored at −80 °C until analyzed. Triglycerides and cholesterol levels were analyzed using colorimetric assay (Thermo Fisher).
Statistical analyses for in vivo experiments were performed on data using a one- (Figure 5A,B and 5D) or two-way (Figure 5C) ANOVA followed by Tukey post hoc multiple comparison analysis. All results are presented as mean ± SEM, n = 5–8, and P < 0.05 was considered significant. Group size estimations were based upon a power calculation to minimally yield an 80% chance to detect a significant difference in body weight of P < 0.05.

[3] = system: Hep3B cells; test: Agonist pERK AlphaLISA assay in Hep3B cells; type: cell-based, human; conditions: 10 min at 37° C, n = 3
Description: as §1, with “Following the respective cell treatments, the cells were lysed (with lysis buffer provided in the kit) for 10 min at room temperature on a shaker and the lysate was mixed with reaction mixture (consisting of reaction buffer, activation buffer, acceptor and donor beads provided in the kit).” left out, “The cell assays corresponding to 293/KLB or Hep3B cells were carried out with AlphaLISA SureFire Ultra pERK1/2 (Thr 202/Tyr204) kit (Perkin Elmer), and BaF3 cells were done using AlphaScreen pERK1/2 (Thr202/Tyr204) kit (Perkin Elmer).” left out
(§3) All cellular phosphorylation data were analyzed using 3-parameter non-linear regression curve in GraphPad Prism 7. […] Each peptide and protein analog was tested in triplicates in three independent experiments (n = 3), and normalized graphs plotted are expressed as mean ± SD unless otherwise noted.

[4] = system: human FGFR4-1c chimera/KLB; test: Agonist pERK AlphaScreen assay in BaF3 cells, FGFR4-1c chimera/KLB; type: cell-based; conditions: BaF3 cells co-expressing KLB and FGFR4-1c chimera; 15 min at 37° C; n = 3
Excerpt: (§4) For generating receptor specific BaF3 cell line, human FGFR1c cDNA was cloned into pMXs-IRES-Puro vector (Cell Biolabs) to generate the expression plasmid pMX-FGFR1c-IRES-Puro. Human FGFR4 sequence was re-engineered to enhance signaling by constructing chimeric cDNA encoding the extracellular region of FGFR4 fused to the intracellular region and tyrosine kinase domain of FGFR1c, and the chimeric sequence was cloned into pMX-IRES-Puro vector to generate the expression plasmid pMX-chimeric FGFR4-1c-IRES-Puro. Human KLB cDNA was cloned into pMXs-IRES-Neo vector (Cell Biolabs) to generate expression plasmid pMX-KLB-IRES-Neo. BaF3 cells were transfected with pMX-FGFR1c-IRES-Puro and pMX- FGFR4-1c chimera-IRES-Puro expression plasmids respectively by electroporation (Xcell machine, Bio-Rad, 950 μF, 370V). Cells were selected with media containing 1 μg/ml Puromycin for 10–12 days. […]
(§5) 293T HEK cells expressing KLB (or KL) or Hep3B cells were plated to 5–6 x 10^4 cells/well density in 96-well cell culture plate coated with poly-D-Lysine (Corning). […] Phosphorylated ERK1/2 (pERK) levels were subsequently recorded by EnSpire Alpha or Envision Multilabel plate reader (Perkin Elmer). […]
(§6) All cellular phosphorylation data were analyzed using 3-parameter non-linear regression curve in GraphPad Prism 7. […]

[5] = system: human FGFR1/KLB; test: Agonist pERK AlphaScreen assay in BaF3 cells, FGFR1/KLB; type: cell-based; conditions: BaF3 cells co-expressing KLB and FGFR1; 15 min at 37° C; n = 3
Excerpt: as §4, §5, §6

[6] = system: lean (C57BL/6J) mice; test: In vivo peptide antagonism study, cFos and EGR1 mRNA in pancreas and eWAT; design: species or system mouse; conditions: 1 mg/kg sc, one hour, WAT and pancreas
Excerpt: as §2
Mice were administered vehicle, FGF21 (1 mg/kg), or FGF19 (1 mg/kg) alone or in combination with 19C26,A^26 (30 mg/kg), (dosed 15 min prior to FGF21 or FGF19 administration) via sc injections. One-hour post FGF21 or FGF19 dosing, the mice were sacrificed and their plasma, pancreas, and epididymal white adipose tissue (eWAT) were harvested for analyses. […] Following reverse transcription, levels of cFos and early growth response-1 (EGR1) mRNA levels were subsequently probed by quantitative PCR (ThermoFisher) and analyzed by ΔΔCT method. […]

[7] = system: 293/KL cells; test: Agonist pERK assay in 293/KL cells; type: cell-based, human; conditions: n = 3
Description: as §1, with “Following the respective cell treatments, the cells were lysed (with lysis buffer provided in the kit) for 10 min at room temperature on a shaker and the lysate was mixed with reaction mixture (consisting of reaction buffer, activation buffer, acceptor and donor beads provided in the kit).” left out, “The cell assays corresponding to 293/KLB or Hep3B cells were carried out with AlphaLISA SureFire Ultra pERK1/2 (Thr 202/Tyr204) kit (Perkin Elmer), and BaF3 cells were done using AlphaScreen pERK1/2 (Thr202/Tyr204) kit (Perkin Elmer).” left out
as §3

[8] = daily sc 0.1, 0.3 or 1 mg/kg, day 7

Row | Molecule | pERK agonist activity, in words [1] | Body weight change [2] | Circulating insulin [2, 8] | Fasted plasma glucose, difference to native FGF21 [2, 8] | Plasma cholesterol ([2]; daily sc 0.1, 0.3 or 1 mg/kg, end of 7 day treatment) | pERK agonist activity, in words [3] | pERK agonist activity, in words [4] | pERK agonist activity, in words [5] | cFos and EGR1 transcriptional activity, FGF alone [6] | pERK agonist activity, in words [7]
1 | B1 | significantly more potent when compared to native FGF21; also recorded: ten-fold-enhanced in vitro potency | dramatically more potent at each corresponding dose | potently reduced circulating insulin when compared to vehicle treatment | statistically different only at the 0.3 mg/kg dose | plasma cholesterol was lowered | significantly more potent when compared to native FGF21; also recorded: ten-fold-enhanced in vitro potency |  |  |  | 
2 | B2 | only negligible activity |  |  |  |  |  |  |  |  | 
3 | B3 | nanomolar potencies | induced weight loss in a dose-dependent manner | potently reduced circulating insulin when compared to vehicle treatment |  |  |  | minimal signaling | active | induced robust transcriptional activity in each tissue | 
4 | B4 |  |  |  |  |  |  |  |  |  | significantly more potent than FGF21

— PMC6026317, “Molecular elements in FGF19 and FGF21 defining KLB/FGFR activity and specificity” (Molecular Metabolism, 2018)
